Reference: patent US20110217237A1 (AbbVie / Abbott, published 2011)
One block for each binder: values may come before it.

Tests used:
mouse DLL4 on cells = biological target: T1, mouse DLL4 on cells (mouse, UniProt Q9JI71 27-686); assay: FACS, DLL4 cells
T1 construct: whole, on cells; also called mouse DLL4-293G; mu DLL4 cells

[1] = biological target: T2, human DLL4, full length, on cells (human, UniProt Q9NR61 27-685); assay: FACS, DLL4 cells
T2 construct: also called huDLL4 cells; human DLL4-293G
T2 sequence (Q9NR61 27-685 limits assumed): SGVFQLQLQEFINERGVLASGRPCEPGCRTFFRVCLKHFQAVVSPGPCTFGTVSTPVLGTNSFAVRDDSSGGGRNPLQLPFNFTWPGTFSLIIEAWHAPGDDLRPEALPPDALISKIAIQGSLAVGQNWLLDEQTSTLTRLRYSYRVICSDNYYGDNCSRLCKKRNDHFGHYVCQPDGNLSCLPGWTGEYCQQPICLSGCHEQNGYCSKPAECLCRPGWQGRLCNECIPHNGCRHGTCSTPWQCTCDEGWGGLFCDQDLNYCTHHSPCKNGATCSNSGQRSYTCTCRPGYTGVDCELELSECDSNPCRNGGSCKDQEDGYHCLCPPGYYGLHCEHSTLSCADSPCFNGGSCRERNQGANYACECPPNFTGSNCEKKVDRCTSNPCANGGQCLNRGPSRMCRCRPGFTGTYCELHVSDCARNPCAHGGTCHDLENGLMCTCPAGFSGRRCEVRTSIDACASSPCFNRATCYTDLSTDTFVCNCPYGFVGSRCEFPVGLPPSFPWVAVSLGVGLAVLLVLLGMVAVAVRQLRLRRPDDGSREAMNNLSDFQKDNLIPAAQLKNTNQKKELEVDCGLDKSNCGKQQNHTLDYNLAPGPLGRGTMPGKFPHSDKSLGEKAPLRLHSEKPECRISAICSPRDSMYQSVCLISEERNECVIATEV

[2] = biological target: T2, human DLL4, full length, on cells; assay: competition FACS: huNotch-1 to DLL4 cells
Procedure: Notch blocking assay: Briefly, stable cell lines overexpressing cell-surface DLL4 were harvested from tissue culture flasks and re-suspended in phosphate buffered saline (PBS) containing 1% bovine serum albumin and 1 mM CaCl₂ (FACS buffer). HEK293G-DLL4 cells were dispensed into 96-well plate (v-bottom) at 1.5×10⁵ cells/well in FACS buffer. After spinning down cells and discarding the supernatant, 50 μL of purified IgG with appropriate dilution were added to each well, and incubated on ice at 4° C. for 60 minutes, followed by addition of 50 μL/well of Notch1-biotin at 0.2 μg/mL for human DLL4-293G or 2.0 μg/mL for mouse DLL4-293G (1.0 or 0.1 μg/mL final) for an additional 1 hour incubation ice at 4° C. After washing the cells two times with FACS buffer, 50 μL of R-phycoerythrin-conjugated streptavidin (1:150 dilution in FACS buffer) (Jackson ImmunoResearch, West Grove, Pa., Cat.#016-110-084) were added. Following an incubation on ice (4° C., 60 minutes), cells were washed three times and resuspended in FACS buffer. Fluorescence was measured using a Becton Dickinson FACSCalibur-HTS (Becton Dickinson, San Jose, Calif.). Data were analyzed using Graphpad Prism software, and IC₅₀ values were reported as the concentration of antibody to achieve 50% reduction of Notch1 bound to DLL4 expressing cells.

T1 sequence (Q9JI71 27-686): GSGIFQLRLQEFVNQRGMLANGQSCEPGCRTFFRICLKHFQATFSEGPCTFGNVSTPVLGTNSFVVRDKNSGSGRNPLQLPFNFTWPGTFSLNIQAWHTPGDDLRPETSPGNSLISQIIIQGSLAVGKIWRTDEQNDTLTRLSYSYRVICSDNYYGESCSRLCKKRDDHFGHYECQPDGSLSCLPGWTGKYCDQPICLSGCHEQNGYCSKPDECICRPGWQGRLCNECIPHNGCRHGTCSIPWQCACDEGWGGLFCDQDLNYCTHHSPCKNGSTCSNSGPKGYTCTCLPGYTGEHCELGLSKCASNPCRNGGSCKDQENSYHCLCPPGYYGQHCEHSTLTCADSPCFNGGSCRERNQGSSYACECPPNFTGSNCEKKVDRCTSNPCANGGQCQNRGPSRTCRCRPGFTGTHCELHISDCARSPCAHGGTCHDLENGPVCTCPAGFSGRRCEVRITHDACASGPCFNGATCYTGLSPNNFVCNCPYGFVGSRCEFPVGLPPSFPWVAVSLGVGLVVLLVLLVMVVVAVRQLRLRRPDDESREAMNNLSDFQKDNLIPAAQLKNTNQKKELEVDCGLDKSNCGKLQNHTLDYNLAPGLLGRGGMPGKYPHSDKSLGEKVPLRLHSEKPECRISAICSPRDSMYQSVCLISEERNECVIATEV

EC50 (mouse DLL4 on cells): 4.11 nM | EC50 [1]: 3.71 nM
B1: 32C7 chimeric antibody (antibody, human IgG1, V domains shown)
VH: EVQLVESGGGLVQPGRSLKLSCLASGFPFSSVWMTWIRQAPGKGLEWIATITNSGASTYYSASVKGRFTISRDNVKSTLYLQMTSLGSEDTATYYCTRVGTSFDYWGQGVMVTVSS
VL: DIQMTQSPASLSASLGETVTIECRASDDIYNGLAWFQQKPGKSPQLLIYDANTLHTGVPSRFSGSGSGTQFSLKINSLQSEDVASYFCQQFYDYPPYTFGAGTKLELKR
notes: also called Chimera of 32C7

IC50 [2]: 4.11 nM | EC50 [1]: 0.994 nM
B2: 14G1 chimeric antibody (antibody, human IgG1, V domains shown)
VH: EVQLQQSGAELAKPGSSVKISCKASGYTFTNYDISWIKQTNGQGLEYLGYINTGSGGIYSNEKFKGKATLTVDKSSNTAFMQLSSLTPEDTAVYYCVREGNNFDHWGQGVKVTVSS
VL: DTVMTQSPASMSTSVGERVTVNCKASQSVGTIVAWFQQKPGQSPKRLIYLATYRHTGVPDRFIGSGFGRDFTLTISNVEAEDLAVYYCLQYGSRPFTFGAGTKLEIKR
notes: also called Chimera of 14G1

IC50 [2]: 1.44 nM | EC50 [1]: 1.47 nM
B3: 38H12 chimeric antibody (antibody, human IgG1, V domains shown)
VH: EVQLVESGGGLVQPGRSLKLSCAASGFTFSNYGMYWIRQAPTKGLQWVAFISHGGGITYYRDSVKGRFTISRDNAKSTLYLQMDSLRSEDTATYHCAALNWELGIDYWGQGVMVTVSS
VL: DIQMTQSPASLSASLGETISIECRASEDIYSNLAWYQKKSGKSPQLLIYAANRLQDGVPSRFSGSGSGTQYSLKISGMQPEDEGDYFCLQGSKFPLTFGSGTKLEIKR
notes: also called Chimera of 38H12
